The target of one assay is T1, recombinant mouse CD163 (Mus musculus, UniProt Q2VLH6).
T1 construct: purchased R&D Systems 7435-CD-050
Briefly: Fluorescence anisotropy assay with recombinant CD163. The conditions noted are these: 50 nM FAM peptide, 1 μM protein, 25 °C. Type of assay: binding. The procedure:
The recombinant mouse macrophage mannose receptor rmMMR/CD206 (R&D Systems, catalog number: 2535-MM-050) and recombinant mouse CD163 (R&D Systems, catalog number: 7435-CD-050) were reconstituted at 1 mg/ml in IB, aliquoted and stored at −20° C. To generate linearized version of cyclic FAM-UNO peptide, the peptide at 1 mM concentration was preincubated for 24 h at room temperature in a dark place with 3 mM DTT and diluted with IB 2×10^5 times before the FA assay. The control experiment with FAM-CPMTDNE peptide (FIG. 22) was performed to rule out the possibility of disulphide bond formation, which could affect the binding properties of linear peptides. […]
(§1) Fluorescence anisotropy was also carried out using recombinant human macrophage mannose receptor rhMMR/CD206 to determine whether UNO peptide interactions with mouse CD206 carried over to human CD206. […]
In all experiments, FA signal measurements were done under pseudo first-order conditions with 50 nM singly labelled FAM peptides and 1 μM proteins. […] Assays were carried out in kinetic mode in a total volume of 30 μl at 25° C. on the PHERAstar (BMG Labtech, Germany) microplate reader using an optical module with excitation and emission filters of 485 nm (slit 10 nm) and 520 nm (slit 10 nm), respectively. […] FA signals at time t after initiation of binding reaction was calculated as parameters r(t) from the equation: […]
For orientation: In fluorescence polarisation assays a small probe gives low polarisation when free and higher when bound to something large.

Assay [1] has as its target T2, recombinant human macrophage mannose receptor rhMMR/CD206 (Homo sapiens, UniProt P22897).
T2 construct: purchased R&D Systems 2534-MR-050
T2 sequence (P22897 19-1456): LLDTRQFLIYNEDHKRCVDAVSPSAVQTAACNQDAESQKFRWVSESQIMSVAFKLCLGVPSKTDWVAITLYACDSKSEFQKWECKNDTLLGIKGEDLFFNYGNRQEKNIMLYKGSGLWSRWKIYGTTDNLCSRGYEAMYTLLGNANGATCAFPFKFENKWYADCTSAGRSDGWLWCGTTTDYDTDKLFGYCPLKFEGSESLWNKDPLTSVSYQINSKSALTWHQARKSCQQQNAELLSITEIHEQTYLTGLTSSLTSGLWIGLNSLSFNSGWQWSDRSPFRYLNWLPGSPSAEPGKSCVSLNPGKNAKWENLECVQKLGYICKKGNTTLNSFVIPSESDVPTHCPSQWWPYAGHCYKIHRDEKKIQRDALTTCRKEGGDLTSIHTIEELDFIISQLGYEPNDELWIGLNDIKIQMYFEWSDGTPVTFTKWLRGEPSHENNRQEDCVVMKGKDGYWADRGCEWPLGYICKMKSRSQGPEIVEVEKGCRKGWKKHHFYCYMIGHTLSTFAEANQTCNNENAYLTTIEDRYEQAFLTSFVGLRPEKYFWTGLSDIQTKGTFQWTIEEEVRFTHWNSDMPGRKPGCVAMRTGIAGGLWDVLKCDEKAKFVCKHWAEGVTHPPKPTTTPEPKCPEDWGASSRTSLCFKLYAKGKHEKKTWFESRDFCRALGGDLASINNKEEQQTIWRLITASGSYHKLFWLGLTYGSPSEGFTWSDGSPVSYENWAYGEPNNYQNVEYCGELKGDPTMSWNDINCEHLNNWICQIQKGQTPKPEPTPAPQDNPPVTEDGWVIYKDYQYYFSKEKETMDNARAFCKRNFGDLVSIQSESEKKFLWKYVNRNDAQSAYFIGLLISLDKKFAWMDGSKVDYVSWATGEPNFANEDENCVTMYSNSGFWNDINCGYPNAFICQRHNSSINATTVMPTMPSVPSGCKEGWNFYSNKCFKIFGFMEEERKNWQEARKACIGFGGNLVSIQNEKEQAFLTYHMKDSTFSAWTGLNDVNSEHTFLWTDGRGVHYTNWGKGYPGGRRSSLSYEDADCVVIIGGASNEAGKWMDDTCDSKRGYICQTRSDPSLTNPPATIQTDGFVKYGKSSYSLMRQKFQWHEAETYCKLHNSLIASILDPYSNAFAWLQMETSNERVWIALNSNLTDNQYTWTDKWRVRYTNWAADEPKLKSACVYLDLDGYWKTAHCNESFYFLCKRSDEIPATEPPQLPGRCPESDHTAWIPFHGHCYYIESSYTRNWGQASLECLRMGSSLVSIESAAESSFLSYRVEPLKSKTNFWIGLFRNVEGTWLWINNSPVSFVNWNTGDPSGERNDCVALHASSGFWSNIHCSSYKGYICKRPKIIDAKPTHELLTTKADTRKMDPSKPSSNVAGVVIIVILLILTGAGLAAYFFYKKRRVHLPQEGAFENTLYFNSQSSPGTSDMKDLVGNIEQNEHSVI
Put plainly: Fluorescence anisotropy assay with human recombinant CD206. Type of assay: binding. The conditions noted are these: 100 nM FAM peptide, 0.4 μM protein. The procedure:
Time course of fluorescence anisotropy of FAM-mUNO during incubation with human recombinant CD206 (black curve, 3001) or with CD163 (red curve, 3003). The concentration of FAM-mUNO was 100 nM and the concentration of CD206 and CD163 was […]. The anisotropy for the FAM-mUNO alone is shown in the green curve 3004.
as §1
In all experiments, FA signal measurements were done under pseudo first-order conditions with 50 nM singly labelled FAM peptides and 1 μM proteins. […] Assays were carried out in kinetic mode in a total volume of 30 μl at 25° C. on the PHERAstar (BMG Labtech, Germany) microplate reader using an optical module with excitation and emission filters of 485 nm (slit 10 nm) and 520 nm (slit 10 nm), respectively. […] The background fluorescence (receptor and buffer components in the absence of fluorescent ligand) was subtracted independently from all intensity channels. FA signals at time t after initiation of binding reaction was calculated as parameters r(t) from the equation: […]

The subject of a further assay is sentinel lymph node. Put plainly: Ex vivo organ imaging after i.p. injection in 4T1 tumor-bearing mice. The arrangement: species or system mouse. The conditions noted are these: 30 nmoles i.p., 2 h, signal normalized to tissue weight, ratio tissue/kidney. The procedure:
A, FAM-UNO and FAM-LyP-1 were injected i.p. at doses of 30 nmoles in 4T1 tumor-bearing mice. Peptides were allowed to circulate for two h, mice were then sacrificed, and the organs were collected and imaged with the live imaging system MX3 Art Optix in the FITC channel with laser excitation. B, The signal in each organ was quantified, normalized to the tissue weight and the ratio tissue/kidney was graphed in bar graph. LyP-1 is a peptide that targets p32 protein on the surface of activated macrophages. Results from n=3 mice. Bars of panel B represent mean+SEM.

This note sets out measurements from patent US11571484B2, “Compositions that target tumor-associated macrophages and methods of use therefor” (Sanford Burnham Prebys Medical Discovery Institute, priority 2017, dated 2023).

Ends that are not written are not given here. FAM = 5(6)-carboxyfluorescein; Ahx = NCCCCCC(=O)O

T1 sequence (Q2VLH6 39-1121): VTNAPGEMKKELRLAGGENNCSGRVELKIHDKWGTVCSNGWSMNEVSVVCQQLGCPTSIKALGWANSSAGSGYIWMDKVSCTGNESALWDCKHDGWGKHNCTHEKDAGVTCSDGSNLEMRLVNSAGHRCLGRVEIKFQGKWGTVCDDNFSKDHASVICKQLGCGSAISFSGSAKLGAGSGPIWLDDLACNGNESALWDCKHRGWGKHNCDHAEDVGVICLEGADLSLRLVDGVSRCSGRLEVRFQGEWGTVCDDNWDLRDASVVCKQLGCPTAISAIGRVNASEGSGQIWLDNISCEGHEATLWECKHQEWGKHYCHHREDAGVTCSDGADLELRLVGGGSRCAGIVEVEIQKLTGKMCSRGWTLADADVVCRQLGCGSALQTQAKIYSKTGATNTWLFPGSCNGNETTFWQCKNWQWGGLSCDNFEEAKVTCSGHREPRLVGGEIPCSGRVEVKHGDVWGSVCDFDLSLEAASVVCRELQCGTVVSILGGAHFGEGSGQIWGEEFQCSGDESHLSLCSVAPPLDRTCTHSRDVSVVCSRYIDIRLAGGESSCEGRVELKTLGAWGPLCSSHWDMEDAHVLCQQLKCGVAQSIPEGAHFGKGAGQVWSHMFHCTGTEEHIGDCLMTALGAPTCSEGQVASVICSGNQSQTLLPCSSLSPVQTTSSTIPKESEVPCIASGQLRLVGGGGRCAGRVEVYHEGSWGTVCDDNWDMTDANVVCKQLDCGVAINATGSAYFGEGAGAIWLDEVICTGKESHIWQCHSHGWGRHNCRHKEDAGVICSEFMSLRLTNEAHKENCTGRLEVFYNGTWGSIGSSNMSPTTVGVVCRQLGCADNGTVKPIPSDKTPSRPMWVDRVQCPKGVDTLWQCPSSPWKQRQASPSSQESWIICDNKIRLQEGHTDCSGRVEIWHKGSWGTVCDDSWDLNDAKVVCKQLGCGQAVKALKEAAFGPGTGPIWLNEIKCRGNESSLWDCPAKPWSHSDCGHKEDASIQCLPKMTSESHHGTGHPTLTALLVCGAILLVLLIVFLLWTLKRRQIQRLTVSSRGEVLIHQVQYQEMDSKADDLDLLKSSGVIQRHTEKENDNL

For the substance “FAM-CSPGAK: FAM-labeled linear CSPGAK (SEQ ID NO: 6) (not fully specified; FAM label)”, the “change in fluorescence anisotropy with CD163” value with recombinant mouse CD163 is listed as “no change in anisotropy”.

For the substance “FAM-UNO: FAM-labeled UNO peptide CSPGAKVRC (SEQ ID NO: 1); 5(6)-carboxyfluorescein with 6-aminohexanoic acid spacer at the N-terminus ({FAM-Ahx}-CSPGAKVRC; cysteine pairing not given here)”, in assay [1], the “change in fluorescence anisotropy (interaction) with human recombinant CD206” value was “did not cause a change in the fluorescence anisotropy”. Besides, the “accumulation of FAM in the sentinel lymph node versus FAM-LyP-1” value in the assay with sentinel lymph node is “significantly higher accumulation of the FAM in the sentinel lymph node”.
